PMC2603627

Target: GST-tagged p63RhoGEF (UniProt Q86VW2)
Assay: pull-down

Sequence of UniProt Q86VW2 (Q86VW2 whole entry): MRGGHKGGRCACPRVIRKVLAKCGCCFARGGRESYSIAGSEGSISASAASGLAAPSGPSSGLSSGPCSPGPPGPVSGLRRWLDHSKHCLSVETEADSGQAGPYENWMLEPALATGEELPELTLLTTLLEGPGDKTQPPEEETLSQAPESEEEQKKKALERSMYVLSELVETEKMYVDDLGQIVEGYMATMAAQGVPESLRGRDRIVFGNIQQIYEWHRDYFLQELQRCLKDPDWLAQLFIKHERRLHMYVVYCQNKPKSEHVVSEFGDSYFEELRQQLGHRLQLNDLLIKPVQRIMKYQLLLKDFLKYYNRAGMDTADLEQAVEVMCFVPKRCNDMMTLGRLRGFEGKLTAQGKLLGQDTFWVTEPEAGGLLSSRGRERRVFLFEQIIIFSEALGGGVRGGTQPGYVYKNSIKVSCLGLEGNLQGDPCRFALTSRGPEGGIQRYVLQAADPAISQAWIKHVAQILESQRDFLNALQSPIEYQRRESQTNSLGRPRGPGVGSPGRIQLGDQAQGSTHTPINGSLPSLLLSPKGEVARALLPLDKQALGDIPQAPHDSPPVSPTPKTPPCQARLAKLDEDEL

Substance | % associated MLK3/input MLK3 after overnight incubation [%] | amount in GST-p63RhoGEF complexes relative to FLAG-MLK3^KR [fold]
FLAG-MLK3^KR (kinase-deficient, ATP-binding point mutant of MLK3) (from UniProt Q16584 1-847) (enzyme) | 44 | –
FLAG-MLK3^KR/T277D,S281D (from UniProt Q16584 1-847) (enzyme) | – | 2
